pKd: −log10 of the molar value. Where two headings read alike, the source gives them in different places.

Assay [1] concerns the target PfBDP1-BRD (residues 303–488 or 333–456), bromodomain of P. falciparum Bromodomain Protein 1, as used in ITC (P. falciparum) (UniProt Q8IJ72). Kind of assay: ITC; histone peptide (2.5–5.0 mM) in the syringe, PfBDP1-BRD (303–488 or 333–456; 100–200 μM) in the sample cell; 5°C; 20 mM sodium phosphate pH 7.5, 150 mM NaCl, 1 mM TCEP; 1:1 binding model, single set of identical sites. For orientation: In ITC the heat of successive injections is recorded.

For assay [2] the target is unchanged. The description is as above. The source holds these as a separate data set.

The pKd is the Kd on a negative log10 scale, so that one unit is a factor of ten. As for “H4K5acK8acK12acK16ac histone peptide (1–24), tetra-acetylated histone H4”, the pKd was 3.93 in assay [1] and 3.76 in assay [2].
